These results are taken from patent US20120094909A1 (Bristol-Myers Squibb, published 2012).

Changes are numbered by the printed parent chain. Where “and” joins values, the source holds several entries; their conditions need not be identical. Equal entries are not always repeated. Where two headings read alike, the source gives them in different places.

Assay [1] concerns the target T1, human serum albumin (human, UniProt P02768 25-609).
T1 construct: also called HSA
Kind of assay: SPR (Biacore), albumin captured on chip, SABA in flow. As to the method: (§1) The kinetics of selected SABA clones purified from HTPP and/or midscaled material described in Examples 5A and 5B were determined by capturing the respective serum albumin (HSA/RhSA/MuSA) on the surface of a Biasensor CMS chip and flowing a concentration series of SABAs over both the reference flow cell and the captured albumins. In addition, binding to albumin was carried out under various pH conditions ranging from pH 5.5 to pH 7.4.
(SPR reads the build-up and loss of mass on a sensor chip optically.)

Assay [2] has as its target T2, rhesus serum albumin (rhesus, UniProt Q28522 17-600).
T2 construct: also called RhSA
The description is as above. Here is the method:
as §1

Assay [3] deals with T1, human serum albumin. The experiment in a line: SPR (Biacore), albumin captured on chip, SABA in flow; n = 6. As to the method:
as §1

Assay [4] concerns the target T3, human serum albumin (human, UniProt P02768 25-609).
T3 construct: also called HSA
The experiment in a line: kinetic analysis, HBS-P buffer.

The target in assay [5] is T4, rhesus serum albumin (rhesus, UniProt Q28522 17-600).
T4 construct: also called RhSA
Kind of assay: kinetic analysis, HBS-P buffer.

Assay [6] deals with T5, murine serum albumin (mouse, UniProt P07724 25-608).
T5 construct: also called MuSA; mouse serum albumin
The experiment in a line: kinetic analysis and direct binding ELISA (Table 18, FIG. 27). In general terms: In an ELISA, binding on a coated surface is turned into a signal by an enzyme label.

A further assay addresses rat serum albumin (rat, UniProt P02770 25-608). The description is as above.
The target in assay [7] is T1, human serum albumin. The experiment in a line: kinetic binding analysis in MES buffer, pH 5.5.
The target of assay [8] is T2, rhesus serum albumin. Kind of assay: kinetic binding analysis in MES buffer, pH 5.5.
The target of assay [9] is T1, human serum albumin. Kind of assay: kinetic binding analysis in MES buffer, pH 7.4.
Assay [10] concerns the target T2, rhesus serum albumin. Kind of assay: kinetic binding analysis in MES buffer, pH 7.4.
The target of assay [11] is T1, human serum albumin. Kind of assay: kinetic binding analysis in HBS-P buffer, 25 °C.
The target of assay [12] is T2, rhesus serum albumin. The experiment in a line: kinetic binding analysis in HBS-P buffer, 25 °C.
Assay [13] deals with T6, murine serum albumin (mouse, UniProt P07724 25-608).
T6 construct: also called MuSA; Mouse
The experiment in a line: kinetic binding analysis in HBS-P buffer, 25 °C.

Assay [14] has as its target T1, human serum albumin. Kind of assay: kinetic binding analysis in HBS-P buffer, 37 °C.
The target in assay [15] is T2, rhesus serum albumin. The experiment in a line: kinetic binding analysis in HBS-P buffer, 37 °C.
Assay [16] concerns the target T2, rhesus serum albumin. Kind of assay: SPR (Biacore), albumin captured on chip, SABA in flow; n = 4. Here is the method:
as §1

In assay [17] the target is T1, human serum albumin. The experiment in a line: SPR (Biacore), albumin captured on chip, SABA in flow; n = 9. As to the method:
as §1

Assay [18] has as its target T7, human PCSK9 (proprotein convertase subtilisin kexin type 9) (human, UniProt Q8NBP7 31-692).
T7 construct: immobilized directly (ProteOn), biotinylated (Octet) or in solution, according to the assay; also called hPCSK9; PCSK9-AF647 (labelled form)
Kind of assay: ITC, 37 C.

Assay [19] has as its target T7, human PCSK9 (proprotein convertase …). The experiment in a line: cell-based or functional assay.
Assay [20] shares this target. Kind of assay: SPR (ProteOn), 25 C.
For assay [21] the target is unchanged. Kind of assay: BLI (Octet Red), 37 C. (In BLI a coated tip is dipped into the sample, and binding shifts an interference pattern.)
For assay [22] the target is unchanged. Kind of assay: cell-based or functional assay. This is another data set of the same source.
For assay [23] the target is unchanged. The experiment in a line: PCSK9:EGFA FRET, competitor EGFA peptide.
Assay [24] has the same target. The experiment in a line: SPR (ProteOn), PCSK9 immobilized directly, 25 C. Here is the method:
(§2) The binding characteristics were characterized by Surface Plasmon Resonance (SPR). […] This allowed kinetic determination in the absence of regeneration. […] Evaluation of the kinetic parameters was performed using the Langmuir interaction model and constant parameter fitting with the ProteOn Manager software.

The target in assay [25] is T8, human PCSK9 (proprotein convertase subtilisin kexin type 9) (human, UniProt Q8NBP7 31-692).
T8 construct: Directly immobilized (SPR ProteOn), biotinylated (BLI), or in solution, depending on the assay; also called hPCSK9
The experiment in a line: ITC, 37 C. As to the method:
Solution phase binding was measured in 25 mM HEPES, pH 7.41, 150 mM NaCl at 37° C.

In assay [26] the target is T8, human PCSK9 (proprotein convertase …). Kind of assay: SPR ProteOn, 25 C. Here is the method: as §2
Assay [27] deals with T9, cynomolgus monkey PCSK9 (cynomolgus monkey, UniProt A0A7N9D9N8 150-747).
T9 construct: also called cyno PCSK9; cPCSK9
Kind of assay: SPR ProteOn, 25 C. Here is the method: as §2

For assay [28], the target named is T8, human PCSK9 (proprotein convertase …). Kind of assay: KinExA, solution phase. As to the method:
Due to technical limitations, the lowest concentration of Adnectins that could be tested was 1 nM.

The target is the same in assay [29]. Kind of assay: cell-based or functional assay. The source holds these as a separate data set.
Assay [30] has the same target. Kind of assay: FRET, competitor ATI000972. The source says:
(§3) Table 11 summarizes the overall data from these three FRET assays.

For assay [31] the target is unchanged. Kind of assay: FRET, competitor EGFA peptide.
Source text: as §3

For assay [32], the target named is T9, cynomolgus monkey PCSK9. The experiment in a line: FRET, competitor EGFA peptide.
Source text: as §3

Assay [33] has as its target T9, cynomolgus monkey PCSK9. The experiment in a line: SPR ProteOn, PCSK9 immobilized, 25 C. Here is the method:
as §2

Assay [34] addresses T8, human PCSK9 (proprotein convertase …). The experiment in a line: BLI, biotinylated hPCSK9 on sensor tips.
The target is the same in assay [35]. Kind of assay: FRET direct binding, anti-his6 antibody.
Source text: as §3

Assay [36] shares this target. The experiment in a line: SPR Biacore, ATI-1081 captured on anti-His antibody, hPCSK9 in flow, 25 C. Here is the method:
The binding characteristics were characterized by Surface Plasmon Resonance (SPR). […] […] Duplicate experiments for PRD460 were performed on different days. Kinetic determinations were performed at 25° C. Evaluation of the kinetic parameters was performed using the 1:1 Binding algorithm on the BIACORE® Evaluation software.

Assay [37] deals with T1, human serum albumin. Kind of assay: SPR (Biacore), albumin captured on chip, SABA in flow; n = 4. Here is the method: as §1

B1: SABA2.1 (designed binder)
chain: MGVSDVPRDLEVVAATPTSLLISWPKYDKTGHYYRITYGETGGNSPVQEFTVPTRQTTATISGLKPGVDYTITVYAVSKDDYYPHEHRPISINYRTEIDKPSQHHHHHH
As a reminder, the koff is a measure of how fast the partners let go of each other. Usually Kd stands for the constant that tells how readily two partners part at equilibrium. For the molecule B1, the koff was found to be 0.000171 s⁻¹ with human serum albumin [1] and 0.000442 s⁻¹ with rhesus serum albumin [2]. The Kd in the assay with rhesus serum albumin [2] was found to be 63.6 nM; in the assay with human serum albumin [3], 33.8 nM.

B2: SABA1.2 (designed binder)
chain: MGVSDVPRDLEVVAATPTSLLISWHSYYEQNSYYRITYGETGGNSPVQEFTVPYSQTTATISGLKPGVDYTITVYAVYGSKYYYPISINYRTEIEDEDEDEDED
notes: core 1 10Fn3 with (ED)5 extension
With B2, the “fold increase in affinity at 37 C against 25 C” value in the assay with human serum albumin [4] was approximately 2 fold. For the same molecule, the “affinity at 37 C relative to 25 C” value in the assay with rhesus serum albumin [5] was 0.5 fold. Besides, the binding result in the assay with murine serum albumin [6] and with rat serum albumin was “no binding (tested: up to 1 µM)” throughout.

B3: SABA1.2 (designed binder)
chain: B2 chain
notes: It has no His tag; also called "core 1" 10Fn3 comprising an (ED)5 extension
By kon is commonly meant the second-order rate constant of association. Consider B3, for which the Kd worked out at 28.6 nM with human serum albumin [7]; 359 nM with rhesus serum albumin [8]; 41.9 nM with human serum albumin [9]; 479 nM with rhesus serum albumin [10]; 55.3 nM in the assay with human serum albumin [11]; 580 nM with rhesus serum albumin [12]. Further, the Kd came to 24.1 nM with human serum albumin [14] and 977 nM with rhesus serum albumin [15]. For the same molecule, the off-rate constant (koff) was found to be 0.00027 s⁻¹ in the assay with human serum albumin [7]; 0.00272 s⁻¹ in the assay with rhesus serum albumin [8]; 0.000388 s⁻¹ with human serum albumin [9]; 0.00295 s⁻¹ with rhesus serum albumin [10]; 0.000443 s⁻¹ with human serum albumin [11]; 0.00378 s⁻¹ with rhesus serum albumin [12]. For the same molecule, the koff in the assay with human serum albumin [14] was found to be 0.000815 s⁻¹; in the assay with rhesus serum albumin [15] it was 0.0185 s⁻¹. The kon came to 9440 M⁻¹ s⁻¹ with human serum albumin [7]; 7570 M⁻¹ s⁻¹ with rhesus serum albumin [8]; 9260 M⁻¹ s⁻¹ in the assay with human serum albumin [9]; 6160 M⁻¹ s⁻¹ with rhesus serum albumin [10]; 8210 M⁻¹ s⁻¹ with human serum albumin [11]; 6600 M⁻¹ s⁻¹ in the assay with rhesus serum albumin [12]. The kon with human serum albumin [14] is 33800 M⁻¹ s⁻¹; with rhesus serum albumin [15] it was 18900 M⁻¹ s⁻¹. Besides, in the assay with murine serum albumin [13], the binding result is “no binding (tested: up to 1 µM)”.

B4: SABA1.1 (designed binder)
chain: MGVSDVPRDLEVVAATPTSLLISWHSYYEQNSYYRITYGETGGNSPVQEFTVPYSQTTATISGLKPGVDYTITVYAVYGSKYYYPISINYRTEIDKPSQHHHHHH
notes: also called clone 1318H04
On to B4, for which the koff with human serum albumin [1] worked out at 0.000457 s⁻¹; with rhesus serum albumin [2], 0.00545 s⁻¹. The Kd with rhesus serum albumin [16] turned out to be 778 nM; with human serum albumin [17], 47.2 nM.

B5: 1459D05 (designed binder)
chain: MGVSDVPRDLEVVAATPTSLLISWPPPSHGYGYYRITYGETGGNSPVQEFTVPPGKGTATISGLKPGVDYTITVYAVEYPYKHSGYYHRPISINYRTEIDKPSQHHHHHH
notes: also called ATI000891; ATI-891
Broadly, the EC50 is the concentration needed to bring the measured effect to its halfway point. For the molecule B5, the equilibrium dissociation constant (Kd) in assay [18] came out at 26 nM; in [20], 1.58 nM; in assay [21] it was 14.4 nM; in assay [24] it was 1.6 nM. Further, the “DiI-LDL uptake in HepG2 cells, EC50” value in assay [19] amounted to 190 nM. Besides, the “percentage of PCSK9 inhibition at 75 nM” value in assay [19] worked out at 66.8%. Besides, in assay [22], the “LDLR Depletion (% inhibition at 75 nM)” value is 66.8%. In assay [22], the “LDLR Depletion EC50” value is more than 200 nM. The same molecule yielded an EC50 in [23] of 4 nM.

B6: 2013E01 (designed binder)
chain: B5 chain with P25V, H29D, G30D, P54I, Y79F, Y81W, K82P, S84A
notes: Anti-PCSK9 Adnectin, His6-tagged, unmodified (not PEGylated); also called ATI001081
By IC50 is commonly meant the midpoint of a concentration-inhibition curve. B6 registered a Ka in assay [25] of 7.1e+08 M⁻¹. Further, the Kd in [25] turned out to be 1.4 nM; in assay [26] it was 0.29 nM; with cynomolgus monkey PCSK9 [27], 8.1 nM; in [28], 0.0695 nM; with cynomolgus monkey PCSK9 [33] it was 8.1 nM; in assay [36] it was 6.7 nM. For the same molecule, the “Stoichiometry (N)” value in assay [25] came to 0.926. Moreover, the ΔH in assay [25] is -26.6 kcal/mol. Besides, the ΔS in [25] was -45.4 cal/mol °C. The “LDLR Depletion EC50” value in [29] was 10 nM. Further, the values for the IC50 in assay [30] and in assay [31] were 1.8 nM and 1.6 nM, respectively. Besides, the EC50 in [31] was determined as 1.6 nM; in the assay with cynomolgus monkey PCSK9 [32], 12.5 nM; in assay [35], 0.9 nM. For the same molecule, the dissociation rate constant (koff) with cynomolgus monkey PCSK9 [33] is 0.00177 s⁻¹; in assay [34] it was 0.000837 s⁻¹ and 0.000349 s⁻¹; in assay [36] it was 0.000245 s⁻¹. Further, the kon with cynomolgus monkey PCSK9 [33] was 219000 M⁻¹ s⁻¹; in assay [34], 546000 M⁻¹ s⁻¹ and 829000 M⁻¹ s⁻¹; in assay [36] it was 36500 M⁻¹ s⁻¹.

B7: SABA4.1 (designed binder)
chain: MGVSDVPRDLEMVAATPTSLLISWEDDSYYSRYYRITYGETGGNSPVQEFTVPSDLYTATISGLKPGVDYTITVYAVTYDVTDLIMHEPISINYRTEIDKPSQHHHHHH
notes: Carries a scaffold mutation; SABA5 is the scaffold-perfect version
B7: the off-rate constant (koff) was 0.000782 s⁻¹ with human serum albumin [1] and 0.00383 s⁻¹ with rhesus serum albumin [2]. Besides, the Kd with rhesus serum albumin [2] was more than 1000 nM; in the assay with human serum albumin [37], 412 nM.
